Data from patent US20210395344A1 (TWIST BIOSCIENCE, published 2021).
Where two headings read alike, the source gives them in different places.

Legend:
[1] = molecular target: human ACE2 (human, UniProt Q9BYF1 18-740)
[2] = molecular target: T1, COVID S1 RBD Fc fusion (Antigen 1) (SARS-CoV-2, UniProt P0DTC2 319-541); experiment: phage ELISA
T1 construct: domain: RBD

[3] = molecular target: T2, S1-Fc (SARS-CoV-2, UniProt P0DTC2 16-685); experiment: phage ELISA
[4] = molecular target: T3, COVID S1 RBM Fc fusion (Antigen 2) (SARS-CoV-2, UniProt P0DTC2 437-508); experiment: phage ELISA
T3 construct: domain: RBM

[5] = molecular target: T1, COVID S1 RBD Fc fusion (Antigen 1); experiment: phage ELISA; remark: listed apart in the source
[6] = molecular target: T2, S1-Fc; experiment: phage ELISA; remark: listed apart in the source
[7] = molecular target: T3, COVID S1 RBM Fc fusion (Antigen 2); experiment: phage ELISA; remark: listed apart in the source
[8] = molecular target: T4, SARS-CoV-2 S1 (antigen of the Carterra SPR kinetics) (SARS-CoV-2, UniProt P0DTC2 16-685); experiment: Carterra SPR
[9] = molecular target: T4, SARS-CoV-2 S1 (antigen of the Carterra …); experiment: Carterra SPR; remark: listed apart in the source
[10] = molecular target: T5, SARS-CoV-2 Spike Glycoprotein S1 (subunit 1) (SARS-CoV-2, UniProt P0DTC2 16-685); experiment: ELISA binding titration
T5 construct: also called S1 Monomer; SARS-CoV-2 S1

[11] = molecular target: T5, SARS-CoV-2 Spike Glycoprotein S1 …; experiment: screening phage ELISA, mean
[12] = molecular target: T5, SARS-CoV-2 Spike Glycoprotein S1 …; experiment: screening phage ELISA, mean; remark: listed apart in the source
[13] = molecular target: T5, SARS-CoV-2 Spike Glycoprotein S1 …; experiment: column DC/S1 (format not explained)
[14] = molecular target: T5, SARS-CoV-2 Spike Glycoprotein S1 …; experiment: column Fc/S1 (format not explained)
[15] = molecular target: T5, SARS-CoV-2 Spike Glycoprotein S1 …; experiment: column Inhibitor IC50 (assay not explained)

Chain of human ACE2 (Q9BYF1 18-740 limits assumed): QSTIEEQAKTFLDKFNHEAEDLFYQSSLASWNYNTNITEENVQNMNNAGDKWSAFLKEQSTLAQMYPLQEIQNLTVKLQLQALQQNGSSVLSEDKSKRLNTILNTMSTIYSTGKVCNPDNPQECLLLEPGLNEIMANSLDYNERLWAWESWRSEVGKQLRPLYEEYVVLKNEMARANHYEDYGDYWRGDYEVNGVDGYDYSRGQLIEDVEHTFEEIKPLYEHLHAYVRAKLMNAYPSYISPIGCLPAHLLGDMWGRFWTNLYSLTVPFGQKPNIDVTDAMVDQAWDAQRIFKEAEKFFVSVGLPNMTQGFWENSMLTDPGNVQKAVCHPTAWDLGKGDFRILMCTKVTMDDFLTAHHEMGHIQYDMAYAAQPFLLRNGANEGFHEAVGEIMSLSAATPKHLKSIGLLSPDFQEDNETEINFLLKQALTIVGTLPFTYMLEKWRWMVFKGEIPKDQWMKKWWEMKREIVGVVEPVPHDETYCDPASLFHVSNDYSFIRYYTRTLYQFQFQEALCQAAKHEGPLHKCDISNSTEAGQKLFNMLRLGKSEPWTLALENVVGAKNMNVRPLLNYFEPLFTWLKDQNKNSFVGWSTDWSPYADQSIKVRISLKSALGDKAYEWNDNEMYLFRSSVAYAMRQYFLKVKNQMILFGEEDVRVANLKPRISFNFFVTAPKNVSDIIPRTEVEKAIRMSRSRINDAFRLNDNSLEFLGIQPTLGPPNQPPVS

Binder | IC50 [1] [nM] | ELISA fold over background [2] [fold over background] | ELISA fold over background [3] [fold over background] | ELISA fold over background [4] [fold over background] | ELISA fold over background [5] [fold over background] | ELISA fold over background [6] [fold over background] | ELISA fold over background [7] [fold over background] | koff [8] [s⁻¹] | kon [8] [M⁻¹ s⁻¹] | Kd [9] [nM] | koff [9] [s⁻¹] | kon [9] [M⁻¹ s⁻¹] | EC50 [10] [nM] | ELISA (Avg) [11] | ELISA (Avg) [12] | Kd [13] [nM] | Kd [14] [nM] | IC50 [15] [nM]
4-147 (antibody, V domains shown) VH: EVQLVESGGGLVQPGGSLRLSCAASGGTFSVYAMGWFRQAPGKEREGVAAISMSGDDAAYADSVKGRFTISADNSKNTAYLQMNSLKPEDTAVYYCAKISKDDGGKPRGAFFDSWGQGTLVTVSS | 68.3 |  |  |  |  |  |  |  |  |  |  |  |  |  |  |  |  | 
1-47 (antibody, V domains shown, also called variant 1-47) VH: EVQLLESGGGLVQPGGSLRLSCAASGFTFSSQAMSWVRQAPGKGLEWVSAISGSGGGTYYADSVKGRFTISRDNSKNTLYLQMNSLRAEDTAVYYCAKDRRFGEFDPWGQGTLVTVSS VL: QSALTQPASVSGSPGQSITISCTGTSSGVGSYNLVSWYQQHPGKAPKLMIYEGIKRPSGVSNRFSGSKSGNTASLTISGLQAEDEADYYCCSYAGSSSFVVFGGGTKLTVL |  | 5.5 | 1.2 | 0.9 | 5.5 | 1.2 | 0.9 | 0.24 | 6320 | 38000 | 0.24 | 6320 |  |  |  |  |  | 
1-10 (antibody, V domains shown, also called variant 1-10) VH: EVQLLESGGGLVQPGGSLRLSCAASGFTFSSYDMSWVRQAPGKGLEWVSVISGSGGSTYYADSVKGRFTISRDNSKNTLYLQMNSLRAEDTAVYYCAKGPLVGWYFDLWGQGTLVTVSS VL: QSALTQPASVSGSPGQSITISCTGTSSNVGSYNLVSWYQQHPGKAPKLMIYEGTKRPSGVSNRFSGSKSGNTASLTISGLQAEDEADYYCCSYAGSSSFVVFGGGTKLTVL |  | 17.4 | 1.3 | 1.1 | 17.4 | 1.3 | 1.1 | 0.147 | 1.04e+06 | 142 | 0.147 | 1.04e+06 |  |  |  |  |  | 
1-4 (antibody, V domains shown) VH: EVQLLESGGGLVQPGGSLRLSCAASGFTFSSQAMSWVRQAPGKGLEWVSAISGSGGGTYYADSVKGRFTISRDNSKNTLYLQMNSLRAEDTAVYYCAKDRRFGEFDPWGQGTLVTVSS VL: QSALTQPASVSGSPGQSITISCTGTSSDVGTYNLVSWYQQHPGKAPKLMIYEGSQRPSGVSNRFSGSKSGNTASLTISGLQAEDEADYYCCSYAGSSSFVVFGGGTKLTVL |  |  |  |  |  |  |  |  |  |  |  |  | 2.56 | 20.6 | 20.6 | 659 | 25.5 | 
1-31 (antibody, V domains shown) VH: EVQLLESGGGLVQPGGSLRLSCAASGFTFSSYAMNWVRQAPGKGLEWVSAISGSGGSTFYADSVKGRFTISRDNSKNTLYLQMNSLRAEDTAVYYCTRPPYGDYGDYWGQGTLVTVSS VL: QSALTQPASVSGSPGQSITISCTGTSSDVGKYNLVSWYQQHPGKAPKLMIYEGSQRPSGVSNRFSGSKSGNTASLTISGLQAEDEADYYCCSYAGSRTPVVFGGGTKLTVL |  |  |  |  |  |  |  |  |  |  |  |  | 0.203 | 20.7 | 20.7 | 14.4 | 17.5 | 9.2
1-7 (antibody, V domains shown, also called variant 1-7) VH: EVQLLESGGGLVQPGGSLRLSCAASGFTFSSYDMSWVRQAPGKGLEWVSVISGSGGSTYYADSVKGRFTISRDNSKNTLYLQMNSLRAEDTAVYYCAKGPLVGWYFDLWGQGTLVTVSS VL: QSALTQPASVSGSPGQSITISCTGTSSDFGSYNLVSWYQQHPGKAPKLMIYEGNKRPSGVSNRFSGSKSGNTASLTISGLQAEDEADYYCCSYAGSSTFVVFGGGTKLTVL |  | 3.3 | 1.7 | 1.6 | 3.3 | 1.7 | 1.6 | 0.17 | 1.34e+06 | 127 | 0.17 | 1.34e+06 |  |  |  |  |  | 
1-28 (antibody, V domains shown) VH: EVQLLESGGGLVQPGGSLRLSCAASGFTFSSYGMSWVRQAPGKGLEWVSAISGSGGGTYYADSVKGRFTISRDNSKNTLYLQMNSLRAEDTAVYYCASSSSWQFDYWGQGTLVTVSS VL: QSALTQPASVSGSPGQSITISCTGTSSGVGSYNLVSWYQQHPGKAPKLMIYEGSQRPSGVSNRFSGSKSGNTASLTISGLQAEDEADYYCCSYAGSSTHYVFGGGTKLTVL |  |  |  |  |  |  |  |  |  |  |  |  | 2.28 | 17.7 | 17.7 | 520 | 3240 | 
1-17 (antibody, V domains shown, also called variant 1-17) VH: EVQLLESGGGLVQPGGSLRLSCAASGFTFSSYAMYWVRQAPGKGLEWVSAISGSAGSTYYADSVKGRFTISRDNSKNTLYLQMNSLRAEDTAVYYCARDTNDFWSGYSIFDPWGQGTLVTVSS VL: QSALTQPASVSGSPGQSITISCTGTSSDIGSYNLVSWYQQHPGKAPKLMIYEGTKRPSGVSNRFSGSKSGNTASLTISGLQAEDEADYYCCSYAGSRTYVFGGGTKLTVL |  | 20.1 | 1.6 | 1.3 | 20.1 | 1.6 | 1.3 |  | 3.92e+08 | 67.1 |  | 3.92e+08 |  |  |  |  |  | 
1-42 (antibody, V domains shown, also called variant 1-42) VH: EVQLLESGGGLVQPGGSLRLSCAASGVTFSSYAMSWVRQAPGKGLEWVSAITGSGGSTYYADSVKGRFTISRDNSKNTLYLQMNSLRAEDTAVYYCAKHGSGTIFGVVIAKYYFDYWGQGTLVTVSS VL: QSALTQPASVSGSPGQSITISCTGTSSDVGRYNLVSWYQQHPGKAPKLMIYEGGKRPSGVSNRFSGSKSGNTASLTISGLQAEDEADYYCCSYASSSTLVFGGGTKLTVL |  | 20.8 | 1.4 | 1 | 20.8 | 1.4 | 1 |  | 9.1e+08 | 113 |  | 9.1e+08 |  |  |  |  |  | 
1-23 (antibody, V domains shown, also called variant 1-23) VH: EVQLLESGGGLVQPGGSLRLSCAASGFTFSSYAISWVRQAPGKGLEWVSIISGSGGSTYYADSVKGRFTISRDNSKNTLYLQMNSLRAEDTAVYYCAREGYRDYLWYFDLWGQGTLVTVSS VL: QSALTQPASVSGSPGQSITISCTGTSNDVGSYNLVSWYQQHPGKAPKLMIYEGNKRPSGVSNRFSGSKSGNTASLTISGLQAEDEADYYCCSYAGSYTVFGGGTKLTVL |  | 3.6 | 1.6 | 1.6 | 3.6 | 1.6 | 1.6 | 0.159 | 506000 | 315 | 0.159 | 506000 |  |  |  |  |  | 
1-24 (antibody, V domains shown, also called variant 1-24) VH: EVQLLESGGGLVQPGGSLRLSCAASGFTFSSYAMNWVRQAPGKGLEWVSIISGSGGSTYYADSVKGRFTISRDNSKNTLYLQMNSLRAEDTAVYYCAREGYRDYLWYFDLWGQGTLVTVSS VL: QSALTQPASVSGSPGQSITISCTGTSSDVGYYNLVSWYQQHPGKAPKLMIYEGNKRPSGVSNRFSGSKSGNTASLTISGLQAEDEADYYCCSYAGGSVVFGGGTKLTVL |  | 11 | 1.1 | 1.3 | 11 | 1.1 | 1.3 |  | 1.94e+08 | 75.5 |  | 1.94e+08 |  |  |  |  |  | 
